Assay results taken from US20200148781A1 (HELMHOLTZ ZENTRUM M NCHEN DEUTSCHES FORSCHUNGSZENTRUM F R …, published 2020).

Biological target: T1, CD73 protein from lysates of U138 glioblastoma cells (human, UniProt P21589 27-549)
T1 construct: Same endogenous protein as m2, but solubilised in cell lysate for immunoprecipitation
T1 sequence (looked up): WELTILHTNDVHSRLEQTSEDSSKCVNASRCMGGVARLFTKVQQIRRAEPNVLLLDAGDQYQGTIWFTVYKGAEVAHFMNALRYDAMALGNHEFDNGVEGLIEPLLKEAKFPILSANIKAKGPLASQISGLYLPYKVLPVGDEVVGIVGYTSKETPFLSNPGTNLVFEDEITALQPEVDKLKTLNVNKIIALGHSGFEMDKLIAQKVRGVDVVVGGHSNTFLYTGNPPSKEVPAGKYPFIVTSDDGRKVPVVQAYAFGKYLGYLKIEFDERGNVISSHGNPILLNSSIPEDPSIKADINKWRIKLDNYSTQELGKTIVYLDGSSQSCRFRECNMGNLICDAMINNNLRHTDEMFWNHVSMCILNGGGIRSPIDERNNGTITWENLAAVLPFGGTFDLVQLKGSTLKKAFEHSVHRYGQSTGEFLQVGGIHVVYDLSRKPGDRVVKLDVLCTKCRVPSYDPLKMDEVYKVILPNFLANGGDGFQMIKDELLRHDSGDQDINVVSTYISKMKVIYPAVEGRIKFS
Assay: immunoprecipitation from cell lysate, immunoblot with a commercial CD73 mAb
Method: In this example, mAb 22E6 binding affinity was characterized (FIG. 3). It was shown that mAb 22E6 recognizes CD73 protein on cancer cells. Using a special flow cytometry technique, a fluorescence-activated cell sorting (FACS) with 22E6 and an anti-rat-IgG-specific, fluorophore-labeled secondary mAb, it was shown that the protein recognized by the 22E6 mAb of the invention is present on the surface of human cancer cells of a total of approx. 30 tested cell lines. U138 MG and GBM20 are glioblastoma cell lines, MDA-MB231 and T47D are human breast cancer cell lines. In order to compare the specificity of mAb 22E6 with the specificity of a commercial CD73 mAb an immunoblot with the same cell lines (U138 MG, GBM20, MDA-MB231 and T47D) was performed using the commercial CD73 mAb as shown in FIG. 3B.

B1: mAb 22E6 (antibody, V domains shown)
VH: EVQLVESGGGLVQPGRSMKLSCAASGFTFSFYYMAWVRQAPTKGLEWVASISTGGGNTYYRDSVKGRFTISRDDAKSTLYLQMDSLRSEETATYYCARHGGDYYGYRGGYFDYWDQGVMVTVSS
VL: DIQMTQTPSSMPASLGERVTISCRASQGINNYLNWYQQKPDGTIKPLIYYTSNLQSGVPSRFSGSGSGTDYSLTISSLEPEDFAMYYCQQYDNSPYTFGAGTKLELK
notes: Rat monoclonal antibody from a hybridoma (rats immunized with EVs of the glioblastoma line GBM20); It was detected with an anti-rat-IgG secondary mAb; also called 22E6 mAb; monoclonal antibody termed "22E6"
binding result: binds
